Experimental data taken from FireProtDB (doi:10.1021/bi00213a031).
“And” between values parts separate entries of the source, which are not always exact repeats. Identical values can stand only once.

Settings: Escherichia coli (strain K12), pH 7.8, 25 °C, Urea, phosphate 58 mM, transition: 3, whole UniProt chain shown

B1: Tryptophan synthase alpha chain wild type, P0A877 (protein)
chain: MERYESLFAQLKERKEGAFVPFVTLGDPGIEQSLKIIDTLIEAGADALELGIPFSDPLADGPTIQNATLRAFAAGVTPAQCFEMLALIRQKHPTIPIGLLMYANLVFNKGIDEFYAQCEKVGVDSVLVADVPVEESAPFRQAALRHNVAPIFICPPNADDDLLRQIASYGRGYTYLLSRAGVTGAENRAALPLNHLVAKLKEYNAAPPLQGFGISAPDQVKAAIDAGAAGAISGSAIVKIIEQHINEPEKMLAALKVFVQPMKAATRS
denaturant m value (Absorbance): 2.8 kcal/mol/M and 1.3 kcal/mol/M | denaturant midpoint (higher = more stable) (Absorbance): 2.5 M and 3.9 M | unfolding free energy (Absorbance): 28.5 kJ/mol and 21.3 kJ/mol | denaturant m value (CD): 2.5 kcal/mol/M and 1.2 kcal/mol/M | denaturant midpoint (higher = more stable) (CD): 2.5 M and 4 M | unfolding free energy (CD): 25.9 kJ/mol and 19.2 kJ/mol
